From the Human Domainome abundance scans (Beltran et al. 2025)
± gives the uncertainty stated by the source.

B1: Zinc finger protein ZIC 2, residues 250 to 295; numbered along this chain, O95409 (parent)
chain: QCIKQELICKWIDPEQLSNPKKSCNKTFSTMHELVTHVSVEHVGGP

Variants of: B1
Test: abundance fitness (aPCA) (normalised: wild type 0, dead -1); higher = more abundant; growth selection in yeast, the domain comes from the species named
Conditions: Homo sapiens

| Variant | abundance fitness |
| --- | --- |
| QCIKQELICKWIDPEQLSNPKKSCNKTFSTMHELVTHVSFEHVGGP | -0.549 ± 0.11 |
| QCIKQELICKWIDPEQLSNPKKSCNKTFSTMHELVTHVSEEHVGGP | 0.062 ± 0.092 |
| QCIKQELICKWIDPEQLSNPKKSCNKTFSTMHELVTHVSCEHVGGP | -0.457 ± 0.11 |
| QCIKQELICKWIDPEQLSNPKKSCNKTFSTMHELVTHVSIEHVGGP | -0.01 ± 0.11 |
| QCIKQELICKWIDPEQLSNPKKSCNKTFSTMHELVTHVSMEHVGGP | 0.082 ± 0.099 |
| QCIKQELICKWIDPEQLSNPKKSCNKTFSTMHELVTHVSLEHVGGP | -0.363 ± 0.096 |
| QCIKQELICKWIDPEQLSNPKKSCNKTFSTMHELVTHVSAEHVGGP | -0.03 ± 0.089 |
| QCIKQELICKWIDPEQLSNPKKSCNKTFSTMHELVGHVSVEHVGGP | -0.032 ± 0.086 |
| QCIKQELICKWIDPEQLSNPKKSCNKTFSTMHELVCHVSVEHVGGP | -0.236 ± 0.099 |
| QCIKQELICKWIDPEQLSNPKKSCNKTFSTMHELVNHVSVEHVGGP | -0.232 ± 0.12 |
| QCIKQELICKWIDPEQLSNPKKSCNKTFSTMHELVMHVSVEHVGGP | -0.341 ± 0.1 |
| QCIKQELICKWIDPEQLSNPKKSCNKTFSTMHELVHHVSVEHVGGP | -0.283 ± 0.12 |
| QCIKQELICKWIDPEQLSNPKKSCNKTFSTMHELVEHVSVEHVGGP | -0.025 ± 0.097 |
| QCIKQELICKWIDPEQLSNPKKSCNKTFSTMHELVKHVSVEHVGGP | 0.141 ± 0.095 |
| QCIKQELICKWIDPEQLSNPKKSCNKTFSTMHELVFHVSVEHVGGP | -0.483 ± 0.11 |
| QCIKQELICKWIDPEQLSNPKKSCNKTFSTMHELVYHVSVEHVGGP | -0.25 ± 0.11 |
| QCIKQELICKWIDPEQLSNPKKSCNKTFSTMHELVVHVSVEHVGGP | -0.38 ± 0.088 |
| QCIKQELICKWIDPEQLSNPKKSCNKTFSTMHELVDHVSVEHVGGP | -0.068 ± 0.1 |
| QCIKQELICKWIDPEQLSNPKKSCNKTFSTMHELVLHVSVEHVGGP | -0.453 ± 0.089 |

| Variant | abundance fitness |
| --- | --- |
| QCIKQELICKWIDPEQLSNPKKSCNKTFSTMHELVWHVSVEHVGGP | -0.081 ± 0.097 |
| QCIKQELICKWIDPEQLSNPKKSCNKTFSTMHELVAHVSVEHVGGP | -0.178 ± 0.091 |
| QCIKQELICKWIDPEQLSNPKKSCNKTFSTMHELVSHVSVEHVGGP | 0.018 ± 0.086 |
| QCIKQELICKWIDPEQLSNPKKSCNKTFSTMHELVQHVSVEHVGGP | 0.055 ± 0.1 |
| QCIKQELICKWIDPEQLSNPKKSCNKTFSTMHEIVTHVSVEHVGGP | -0.79 ± 0.15 |
| QCIKQELICKWIDPEQLSNPKKSCNKTFSTMHESVTHVSVEHVGGP | -0.617 ± 0.094 |
| QCIKQELICKWIDPEQLSNPKKSCNKTFSTMHEHVTHVSVEHVGGP | -0.569 ± 0.14 |
| QCIKQELICKWIDPEQLSNPKKSCNKTFSTMHEFVTHVSVEHVGGP | -0.039 ± 0.1 |
| QCIKQELICKWIDPEQLSNPKKSCNKTFSTMHENVTHVSVEHVGGP | -0.733 ± 0.15 |
| QCIKQELICKWIDPEQLSNPKKSCNKTFSTMHEGVTHVSVEHVGGP | -0.618 ± 0.086 |
| QCIKQELICKWIDPEQLSNPKKSCNKTFSTMHEKVTHVSVEHVGGP | -0.23 ± 0.1 |
| QCIKQELICKWIDPEQLSNPKKSCNKTFSTMHEVVTHVSVEHVGGP | -0.615 ± 0.09 |
| QCIKQELICKWIDPEQLSNPKKSCNKTFSTMHETVTHVSVEHVGGP | -0.696 ± 0.1 |
| QCIKQELICKWIDPEQLSNPKKSCNKTFSTMHEQVTHVSVEHVGGP | -0.48 ± 0.12 |
| QCIKQELICKWIDPEQLSNPKKSCNKTFSTMHERVTHVSVEHVGGP | -0.705 ± 0.089 |
| QCIKQELICKWIDPEQLSNPKKSCNKTFSTMHEYVTHVSVEHVGGP | 0.544 ± 0.11 |
| QCIKQELICKWIDPEQLSNPKKSCNKTFSTMHEPVTHVSVEHVGGP | -0.371 ± 0.11 |
| QCIKQELICKWIDPEQLSNPKKSCNKTFSTMHEWVTHVSVEHVGGP | -0.029 ± 0.096 |
| QCIKQELICKWIDPEQLSNPKKSCNKTFSTMHEMVTHVSVEHVGGP | 0.087 ± 0.095 |

| Variant | abundance fitness |
| --- | --- |
| QCIKQELICKWIDPEQLSNPKKSCNKTFSTMHELVTHVIVEHVGGP | -0.681 ± 0.14 |
| QCIKQELICKWIDPEQLSNPKKSCNKTFSTMHELVTHVPVEHVGGP | -0.666 ± 0.12 |
| QCIKQELICKWIDPEQLSNPKKSCNKTFSTMHELVTHVDVEHVGGP | 0.414 ± 0.1 |
| QCIKQELICKWIDPEQLSNPKKSCNKTFSTMHELVTHVHVEHVGGP | -0.241 ± 0.13 |
| QCIKQELICKWIDPEQLSNPKKSCNKTFSTMHELVTHVGVEHVGGP | -0.019 ± 0.086 |
| QCIKQELICKWIDPEQLSNPKKSCNKTFSTMHELVTHVRVEHVGGP | 0.056 ± 0.087 |
| QCIKQELICKWIDPEQLSNPKKSCNKTFSTMHELVTHVVVEHVGGP | -0.357 ± 0.091 |
| QCIKQELICKWIDPEQLSNPKKSCNKTFSTMHELVTHVYVEHVGGP | -0.873 ± 0.14 |
| QCIKQELICKWIDPEQLSNPKKSCNKTFSTMHELVTHVEVEHVGGP | 0.334 ± 0.092 |
| QCIKQELICKWIDPEQLSNPKKSCNKTFSTMHELVTHVWVEHVGGP | -0.292 ± 0.097 |
| QCIKQELICKWIDPEQLSNPKKSCNKTFSTMHELVTHVCVEHVGGP | -0.016 ± 0.11 |
| QCIKQELICKWIDPEQLSNPKKSCNKTFSTMHELVTHVAVEHVGGP | 0.129 ± 0.088 |
| QCIKQELICKWIDPEQLSNPKKSCNKTFSTMHELVTHVQVEHVGGP | 0.296 ± 0.1 |
| QCIKQELICKWIDPEQLSNPKKSCNKTFSTMHELVTHVTVEHVGGP | -0.065 ± 0.093 |
| QCIKQELICKWIDPEQLSNPKKSCNKTFSTMHELVTHVLVEHVGGP | -0.356 ± 0.091 |
| QCIKQELICKWIDPEQLSNPKKSCNKTFSTMHELVTHVMVEHVGGP | -0.274 ± 0.11 |
| QCIKQELICKWIDPEQLSNPKKSCNKTFSTMHELVTHVNVEHVGGP | -0.007 ± 0.11 |
| QCIKQELICKWIDPEQLSNPKKSCNKTFSTMHELVTHVFVEHVGGP | -0.663 ± 0.11 |
